From patent publication US20200056171A1

Target: sodium taurocholate cotransporting polypeptide (NTCP) (UniProt Q14973)
Test: cell-based or functional assay

Chain of UniProt Q14973 (Q14973 whole entry): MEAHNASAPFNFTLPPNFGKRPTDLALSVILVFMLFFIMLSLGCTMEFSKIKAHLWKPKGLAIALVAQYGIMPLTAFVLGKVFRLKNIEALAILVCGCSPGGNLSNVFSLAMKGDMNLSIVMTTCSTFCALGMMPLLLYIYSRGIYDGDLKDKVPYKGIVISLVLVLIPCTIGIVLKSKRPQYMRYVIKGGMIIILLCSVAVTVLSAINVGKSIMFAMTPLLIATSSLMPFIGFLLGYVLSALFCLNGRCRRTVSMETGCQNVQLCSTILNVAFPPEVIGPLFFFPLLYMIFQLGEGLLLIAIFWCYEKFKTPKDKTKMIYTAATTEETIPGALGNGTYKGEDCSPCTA

Myrcludex B (peptide)
DsRed-positive CreC/CIR cells by FACS, day 7 after rHBV-CreN infection (MOI=250) with MyrB: < 1%
DsRed-positive CreC/CIR cells by flow cytometry, day 10 after rHBV-CreN infection (MOI=300) with MyrB: < 1%
